Where a chain is given by its changes, count along the chain named.
Assays:
Assay in all cases: high-throughput RNA pulldown from lysate on Ni-NTA beads; HRP: 50 mM Tris pH 8, 150 mM NaCl, 1 mM beta-mercaptoethanol, 50 ug/ml BSA, 3 ug/ml yeast RNA, 0.5% heparin; ITC and FP: Tris pH 8, 200 mM KCl, 5% glycerol; MST: 50 mM Tris pH 8, 200 mM NaCl, 1 mM DTT, BSA, heparin, 0.05% Tween 20
Details in all cases: tags: N-terminal His-eGFP
[1] = biological target: T1, GFP-9S library array, motif 4 ND N98C;D124Q (synthetic construct, N98C;D124Q)
T1 chain: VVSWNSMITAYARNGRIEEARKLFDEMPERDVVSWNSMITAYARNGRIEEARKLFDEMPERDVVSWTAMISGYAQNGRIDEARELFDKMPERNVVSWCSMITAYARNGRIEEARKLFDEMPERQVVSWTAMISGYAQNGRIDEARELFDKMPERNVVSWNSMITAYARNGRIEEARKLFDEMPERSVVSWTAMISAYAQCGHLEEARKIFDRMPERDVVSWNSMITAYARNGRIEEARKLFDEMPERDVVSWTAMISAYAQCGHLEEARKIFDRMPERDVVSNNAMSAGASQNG

[2] = biological target: T2, GFP-9S library array, motif 4 ND D124I (synthetic construct, D124I)
T2 chain: T1 chain with C98N, Q124I

[3] = biological target: T3, GFP-9S library array, motif 4 ND N98F;D124G (synthetic construct, N98F;D124G)
T3 chain: T1 chain with C98F, Q124G

[4] = biological target: T4, GFP-9S library array, motif 4 ND N98I;D124R (synthetic construct, N98I;D124R)
T4 chain: T1 chain with C98I, Q124R

[5] = biological target: T5, GFP-9S library array, motif 4 ND N98F;D124N (synthetic construct, N98F;D124N)
T5 chain: T1 chain with C98F, Q124N

Binder | Kd ([1]; label: 5' Cy5) | Kd ([2]; label: 5' Cy5) | Kd ([3]; label: 5' Cy5) | Kd ([4]; label: 5' Cy5) | Kd ([5]; label: 5' Cy5) | Kd ([1]; label: 5' IRDye 800CW) | Kd ([2]; label: 5' IRDye 800CW) | Kd ([3]; label: 5' IRDye 800CW) | Kd ([4]; label: 5' IRDye 800CW) | Kd ([5]; label: 5' IRDye 800CW)
AUUACACGUGA (ssRNA) [Cy5-rpoA] | 127 nM | 53.8 nM | 74.1 nM | 86.4 nM | 81.4 nM |  |  |  |  | 
AUUAGACGUGA (ssRNA) [Cy5-rpoA-G] | 150 nM | 86.2 nM | 75.9 nM | 97.3 nM | 101 nM |  |  |  |  | 
AUUAAACGUGA (ssRNA) [IR-rpoA-A] |  |  |  |  |  | 177 nM | 184 nM | 139 nM | 168 nM | 196 nM
AUUAUACGUGA (ssRNA) [IR-rpoA-U] |  |  |  |  |  | 143 nM | 26.7 nM | 124 nM | 113 nM | 112 nM
